According to patent US20060051755A1:

Target: UbAMC (Homo sapiens (Human)) (UniProt P0CG48)

## GST-Bap-1 (enzyme)
  Km, fluorogenic ubiquitin cleavage assay: 0.5 µM
